Assay results from the DeepSol protein solubility set.

Experiment: soluble on expression in E. coli; label from the status in PepcDB or PDB records

| Sequence | soluble on expression in E. coli |
| --- | --- |
| MQVISPSSPAPRFAGKERFSEVYGELNDDFGSKLKISSKEEENRDDDSWWNQNGTDKDDEGREEDFSFASVNADNSPITADEAFEDGQIRPVYPLFNRNIFFDDPEEKTLRSPLKKLFVESTTTEEEEEESDTVGPYCSWTNRTVEQASPETCRKSNSTGFSKLWRFRDLVLRSNSDGKDAFVFLSNGSSSTSSTSSTAARLSGVVKSSEKGKEKTKTDKKKDKMRTKSAHEKLYMRNRAMREEGKRRSYLPYKHVGFFTNVNGLTRNVHPY | soluble |
| MKIAIAGAGAMGSRFGLMLKQGGNDVLLIDGWQEHINAIKENGLKANYNGEEITVKVSIVNQNEVPTGEQFDLIILFTKAMQLEKMLQDVKPLIADHTEVLCLLNGIGHEDVIEKFVPMEKIFIGNTMWTAGLEGPGKAKLFGSGSVELQNLGIGQEESAKKLAETLSASGLNAKYSDNIHYSIYRKACVNGTMNGLCTILDVNMAGLGATKPAHDMVVTIVNEFAAVAAKENVNLDIPEVIEHVETCFDPTTIGMHFPSMHQDLIKNNRLTEIDYINGAISRKGKKYGVVTPYCDFLTQLVHSKEEILGAK | not soluble |
| MGHHHHHHSHMQEWLYGEKGYYRKALIGQKGDFYTSVSVSKFFGGAVAFYIIKLLEEEKLFLPLKIVEIGSHHGHFLSDIASFLNALSVGVMEQCAFVSCEPLKELQKLQRTIFKQATQLDLMICDLKDLDFKGHENAFVVSNELFDAFACEIVKDNKMLFIAHDHKGVWGAIDEPTKELLKNLDLKQGCAPLFLEAFIKDLLEKLNEASSWVFLSFDYGDETERKDMHLRAFKNHQALDFKDILNNLASLYQQSDLTYDVNFSLVRFLFEKHHAQFSFFKTQANALLDMGLMGLLETFSKSVGYERYLKEAAKIKPLISPGGLGERFKALEFVKKNKM | not soluble |
| MKTLGYILMENGEKIDLEFFPEEAPKTVENFKKLAEQGFYDGVTFHRVIPGFVSQGGDPTGTGAGGPGYSIPCETDGNPHRHLVGSLSMAHAGRNTGGSQFFIVHEPQPHLDGVHTVFGKATSGIETVLNMRQGDVMKEVKVWEE | not soluble |
| MSLKEDYADVRNVMIMGGSRIAVRTAQYVPDYMQVKIVDNDINRCNRLTELLDDKTMIINGDGRDMDLLIEEGLKNTEAFVALTDNSETNILACLAAKRMGVEKTVAEVENIDYIGMAESLDIGTVINKKMIAASHIYQMMLDADVSNVKCLTFANADVAEFTVPAGAKITKNLIKDLGLPKGTTIGGMIRNGEGVLVTGDTLIRPGDHVVVFCLSMMIKKIEKFFNEGHHHHHH | not soluble |
| MQYVAYAEGAKMASGAAKETSSNLFGIWDTWNSNPQMRKDHANELKKKSDEAYNNDMEELKKTRSAFDQEIAKRHAAADMQMSELVKSNNTELKTLQDQFNRDEASHGMAMKMMVREHAEKMKELRSEGREAQERAEREHRMKMSEAEEEHRKEKEIAQEKMDAAKREGSMKIALVEEEKQKIMKERSDELEKYTREMNEMAKNHQEERKKHNAIIGQKKMEMIGSKRDQLKIESEKILESMRNDINLLLAVEIKQNGSHLVEKLIDLFESVKTVKCLMDTVQTELTTIGDEVPEITPGQLSTFDDIKRHKTLFDNRVARFRKNVVTSSFTDAKLYEICMTTVSDFEKIMDKQDMKLVCHHLPKAVENQDFKKIKYYADMASKLNNQFSQEVQHLAAGFSNVSKTYAIDRSNQAAIQN | not soluble |
| MGSDKIHHHHHHMKKTIIISMLLAAGAATYYFTQQTETPKGPRGRPTPNVVVAKAEMQPIRDEVEALGTGKANESITVTPKVTDMVTEINFNDGQMVDKGQLLVRLQDREQIARVTVARVKMKDHERELARISSLVTSQTVAALERDRLQTLIDTAKAELDQAESSLKDRRILAPFSGRLGLRQVSQGSLVTPGTVITTLDDISTIKLDFSVPERFLQSLAIGKSVEASAVAFEGELFTGKVVSVDSRINPTTRAVTVRAEIPNKGMRLLPGMLMKVKLIKQSREALIIPEAAIIPIQKDHFVYLVNDENVVERRQVQLGLRKRGWVEIVGGVDVGEQVMVRGILKVRPGDTVKVQYSEHFSFNQQAKVEPLA | not soluble |
| MQVSVTGDFVGHIQELIRTEVLPYQWEALNDQIAGAEPSHCLDNFRAAAEKKGHIQFHGQPFQDSDIYKWIEAAAYTLAWHPDSDLEAKADQAIELICGAQQPDGYLNTYFILTGAQRWTHLLDGHELYCAGHLMEAAVAYYHATGKDKLLKAAQKLADHIADVFGTSPGKIPGYPGHPEVELALIRLFEATGNIKYQQLAQYFICQRGASPSIFRKEADQFGWDWADSPFQFQFYQAGKPILEQTELEGHAVRALYLCCGIADVAARTQDAALLETCRRLWEDLTQTKLYITGGAGSSVYGEAFTFAYDLPNDTAYAETCAAVAVCFFAQRMMKISPSGAYGDVLEQALYNGVLSGMALDGKSFFYVNPLEVVPEACQKDQRKKHVKPIRQKWFACACCPPNLARLFASIGGYLHFIRAETLYTNLYVTSTSEFTFQGLPIKLHMDSAYPFDEKIHISLSLPRPMEFSYAVRIPAWCADYHVLINGKICAGTLKDGFLYLHRCWRDGDEVELTLSMPVRVVRANSLVRENIGKSAICRGPIVYCMEQLEHHHHHH | not soluble |
| MGSDKIHHHHHHMSLRDKIEELKKIEKEIEQGGGPEKVEKQHRAGKLTAWERLELLLDPGTFVEIDKFVEHRNTYFGLDKVKLPRDGVITGVGEINGRKVAVFSQDFTVMGGSLGEMHAKKIVKLLDLALKMGIPVIGINDSGGARIQEGVDALAGYGEIFLRNTLASGVVPQITVIAGPCAGGAVYSPALTDFIVMVDQTARMFITGPNVIKAVTGEEISQEDLGGAMVHNQKSGNAHFLADNDEKAMSLVRTLLSYLPSNNAEEPPVEDPDTSLETPEDILDILPDNPNKGYDVRDVIKRVVDHGEFFEVQPYFAKNIVIGFARIQGKTVGIVANQPSVLAGVLDIDSSDKAARFIRFLDAFNIPILTFVDTPGYLPGVAQEHGGIIRHGAKLLYAYSEATVPKITVILRKAYGGAYIAMGSKHLGADMVLAWPSAEIAVMGPEGAANIIFKREIEASSNPEETRRKLIEEYKQQFANPYIAASRGYVDMVIDPRETRKYIMRALEVCETKVEYRPKKKHGNIPL | soluble |
| MAHHHHHHMRERKPIRKMKRSRVSDQIIRVEEPDAEEGEASPAKATPVPHFSDRRICINVGGEYITTLASTLCSEPSKFSEWVENNFQGLPRDSMGNPFIDRDPENFRQIISYLRGYELPTATEKIVFLAEDAEYYHIDRLLALINPPAEWRFVSGPGVSSSRKEFSTENILATCGNEPLPQVGKSVFLLRIDKCELVSIGLVGTESPDHDEPLERQTNAIAYRSTGELIRSLNSSSTFFSGNGYKGRDTVMVQVLFKPEGAAQIEFFCNDVKTHETEWLSPVPPLRFAVSLHGVSAVVIERCVAGVKDEDM | not soluble |
| GAGAYAYKTIKEDQKRYNERVMGLGLSPEEKQRRAIASATEGGSVPQIRAPSHVPFLLIGGGTAAFAAARSIRARDPGARVLIVSEDPELPYMRPPLSKELWFSDDPNVTKTLQFRQWNGKERSIYFQPPSFYVSAQDLPNIENGGVAVLTGKKVVHLDVRGNMVKLNDGSQITFEKCLIATGGTPRSLSAIDRAGAEVKSRTTLFRKIGDFRALEKISREVKSITVIGGGFLGSELACALGRKSQASGIEVIQLFPEKGNMGKILPQYLSNWTMEKVKREGVKVMPNAIVQSVGVSGGRLLIKLKDGRKVETDHIVTAVGLEPNVELAKTGGLEIDSDFGGFRVNAELQARSNIWVAGDAACFYDIKLGRRRVEHHDHAVVSGRLAGENMTGAAKPYWHQSMFWSDLGPDVGYEAIGLVDSSLPTVGVFAKATAQDNPKSATEQSGTGIRSESETESEASEITIPPSAPAVPQVPVEGEDYGKGVIFYLRDKVVVGIVLWNVFNRMPIARKIIKDGEQHEDLNEVAKLFNIHED | soluble |
| MSRSEFPNSKCLICGSICTAKFHFGGLSCNACASFFRRTVSLNIRYLCKNSNNCITSPGQRTFCKACRYESCVDKAGMKRDFVQQRRSTNATPKYILNSTSGSSNREVVRGFITDSNSHLVTQTDHLRNIDNNEHCKDMKKYSDLLEISHMNLLRFYVKQVEPEKKELKNILQIKSINDLMITCAYDNGSAMESCVHCPGTGKLSQEDVRLLQKSFQFAHTWLDSTWQYSIATDIDESEVSGESENLSQFISHIKSTLGACLANLKLDVYEFAAFKSFCVWSIGAQGATESMKVVAQEHYEAVASALKMYYKTFTSMSDSEIATRIEEISFGRSSDVQMIYDETIKLYNKIGIPKSLFFEGN | not soluble |
| MEYSYIPSAALYNNADIFQFFPRNKRLNSHQKSRLDEHARKMAAFMMERQEEYRYYENLANQEQFSDDNGMESGFCSGATSTGQSASTSPAPVQLIPNPFFDPEYVAAKTQSPVKLVTNPFFNPELVEEIKKKSQKRNEKSAPVSA | not soluble |
